hFR Binding (percent of wild type) (% of wild type) data for one substance are collected here from patent publication US20030086946A1.

The target in this experiment is purified human folate receptor (hFR) (human) (UniProt P15328).
UniProt P15328, sequence (P15328 25-234): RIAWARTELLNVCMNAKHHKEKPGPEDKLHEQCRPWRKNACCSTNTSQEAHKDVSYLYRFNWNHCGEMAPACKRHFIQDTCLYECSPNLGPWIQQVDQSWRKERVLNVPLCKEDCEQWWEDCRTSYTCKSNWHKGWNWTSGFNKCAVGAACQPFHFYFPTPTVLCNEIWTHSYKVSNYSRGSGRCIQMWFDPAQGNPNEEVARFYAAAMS

As to “wild-type (native) Clostridium septicum alpha toxin”, the hFR Binding (percent of wild type) (% of wild type) came out at 100.
